In US20260345809 (published 2026):

Key:
GPC3 [1] = target: T1, GPC3 (human, UniProt P51654); test: FACS, Huh-7 cells
GPC3 [2] = target: T1, GPC3; test: FACS, GPC3-CHO-K1 cells
GPC3 [3] = target: T1, GPC3; test: FACS, HepG2 cells
GPC3 [4] = target: T1, GPC3; test: FACS, HepG2 cells; remark: listed apart in the source

Binder | EC50 (GPC3 [1]) | EC50 (GPC3 [2]) | EC50 (GPC3 [3]) | EC50 (GPC3 [4])
Y035 (antibody, V domains shown) VH: EVQLVQSGAEVKKPGASVKVSCKASGYTHSDYEMHWVRQAPGQGLEWMGAIHPGSGDTAYNQRFKGRVTITADKSTSTAYMELSSLRSEDTAVYYCARFYSYAYWGQGTLVTVSA VL: DIVMTQTPLSLPVTPGEPASISCRSSQSLVHSNGNTYLQWYLQWYLQKPGQSPQLLIYKVSNRFSGVPDRFSGSGSGTDFTLKISRVEAEDVGVYYCSQSIYVPYTFGQGTKLEIKR | 1.18 nM | 1.46 nM | 1.25 nM | 
GC33 (antibody, V domains shown) VH: QVQLVQSGAEVKKPGASVKVSCKASGYTFTDYEMHWVRQAPGQGLEWMGALDPKTGDTAYSQKFKGRVTLTADKSTSTAYMELSSLTSEDTAVYYCTRFYSYTYWGQGTLVTVSS VL: DVVMTQSPLSLPVTPGEPASISCRSSQSLVHSNRNTYLHWYLQKPGQSPQLLIYKVSNRFSGVPDRFSGSGSGTDFTLKISRVEAEDVGVYYCSQNTHVPPTFGQGTKLEIKR | 0.953 nM | 0.956 nM | 0.745 nM | 0.269 µg/mL
GC33-ZLA (antibody, V domains shown, ADC, ZLA conjugate of GC33) VH: QVQLVQSGAEVKKPGASVKVSCKASGYTFTDYEMHWVRQAPGQGLEWMGALDPKTGDTAYSQKFKGRVTLTADKSTSTAYMELSSLTSEDTAVYYCTRFYSYTYWGQGTLVTVSS VL: DVVMTQSPLSLPVTPGEPASISCRSSQSLVHSNRNTYLHWYLQKPGQSPQLLIYKVSNRFSGVPDRFSGSGSGTDFTLKISRVEAEDVGVYYCSQNTHVPPTFGQGTKLEIKR |  |  |  | 0.143 µg/mL
GC33-L4-D4 (antibody, V domains shown, ADC, MC-MMAF conjugate of GC33) VH: QVQLVQSGAEVKKPGASVKVSCKASGYTFTDYEMHWVRQAPGQGLEWMGALDPKTGDTAYSQKFKGRVTLTADKSTSTAYMELSSLTSEDTAVYYCTRFYSYTYWGQGTLVTVSS VL: DVVMTQSPLSLPVTPGEPASISCRSSQSLVHSNRNTYLHWYLQKPGQSPQLLIYKVSNRFSGVPDRFSGSGSGTDFTLKISRVEAEDVGVYYCSQNTHVPPTFGQGTKLEIKR |  |  |  | 0.112 µg/mL
